Laboratory results: patent publication US20220168396A1, “MULTI-RECEPTOR AGONIST AND MEDICAL USE THEREOF” (published 2022)
Numbered stars: 1 amine (or outer) side, 2 acyl side, 3 side chain; on linkers, the order of the positions; unused ones are H or OH. Square brackets hold non-standard residues; d marks the D form. Side chains are listed from the residue outwards. Ends that are not written are not given here. γGlu = O=C(O)[C@H](CCC(=O)[*:2])N[*:1]; AEEA = NCCOCCOCC(=O)O; Aib = CC(C)(N)C(=O)O

B1: Compound No. 80 (peptide)
peptide: Y[Aib]EGTFTSDYSIYLEKIAAQEFVNWLIAGGPSSGAPPPS-NH2
modifications: N-terminus assumed
SMILES: CC[C@H](C)[C@H](NC(=O)[C@H](CCCCN)NC(=O)[C@H](CCC(=O)O)NC(=O)[C@H](CC(C)C)NC(=O)[C@H](Cc1ccc(O)cc1)NC(=O)[C@@H](NC(=O)[C@H](CO)NC(=O)[C@H](Cc1ccc(O)cc1)NC(=O)[C@H](CC(=O)O)NC(=O)[C@H](CO)NC(=O)[C@@H](NC(=O)[C@H](Cc1ccccc1)NC(=O)[C@@H](NC(=O)CNC(=O)[C@H](CCC(=O)O)NC(=O)C(C)(C)NC(=O)[C@@H](N)Cc1ccc(O)cc1)[C@@H](C)O)[C@@H](C)O)[C@@H](C)CC)C(=O)N[C@@H](C)C(=O)N[C@@H](C)C(=O)N[C@@H](CCC(N)=O)C(=O)N[C@@H](CCC(=O)O)C(=O)N[C@@H](Cc1ccccc1)C(=O)N[C@H](C(=O)N[C@@H](CC(N)=O)C(=O)N[C@@H](Cc1c[nH]c2ccccc12)C(=O)N[C@@H](CC(C)C)C(=O)N[C@H](C(=O)N[C@@H](C)C(=O)NCC(=O)NCC(=O)N1CCC[C@H]1C(=O)N[C@@H](CO)C(=O)N[C@@H](CO)C(=O)NCC(=O)N[C@@H](C)C(=O)N1CCC[C@H]1C(=O)N1CCC[C@H]1C(=O)N1CCC[C@H]1C(=O)N[C@@H](CO)C(N)=O)[C@@H](C)CC)C(C)C
B2: Compound No. 62 (peptide)
peptide: Y[Aib]EGTFTSDYSIYLDKIAAQEFVNWLLAGGPSSGAPPPSK([AEEA-AEEA-γGlu-C18‑OH])-NH2
B3: Compound No. 29 (peptide)
peptide: H-Y[Aib]EGTFTSDYSIYLEKIAAQEFVNWLLAGKPSSGAPPPS-NH2
modifications: not fully specified (residue 30); printed as H-YAibEGTFTSDYSIYLEKIAAQEFVNWLLAGK(OEG-OEG-yGlu-C18-OH) / PSSGAPPPS-NH2
B4: Compound No. 83 (peptide)
peptide: Y[Aib]EGTFTSDYSIYLEKIAAQEFVNWLIAGGPSSGAPPPSK([AEEA-AEEA-γGlu-C20‑OH])-NH2
B5: Compound No. 25 (peptide)
peptide: H-Y[Aib]EGTFTSDYSIYLEKEAAKEFVNWLLAGGPSSGAPPPSK-NH2
modifications: not fully specified (residue 40); printed as H-YAibEGTFTSDYSIYLEKEAAKEFVNWLLAGGPSSGAPPPSK / (OEG-OEG-yGlu-C18-OH)-NH2
B6: Compound No. 27 (peptide)
peptide: H-Y[Aib]EGTFTSDYSIYLEKEAAKEFVNWLLAGGPSSGAPPPS-NH2
modifications: not fully specified (residue 20); printed as H-YAibEGTFTSDYSIYLEKEAAK(OEG-OEG-yGlu-C18-OH)EFVNWLLAG / GPSSGAPPPS-NH2
B7: Compound No. 30 (peptide)
peptide: H-Y[Aib]EGTFTSDYSIYLEKIAAKEFVNWLLAGGPSSGAPPPS-NH2
modifications: not fully specified (residue 20); printed as H-YAibEGTFTSDYSIYLEKIAAK(OEG-OEG-yGlu-C18-OH)EFVNWLLAG / GPSSGAPPPS-NH2
B8: Compound No. 74 (peptide)
peptide: Y[Aib]EGTFTSDYSIYLEKIAAQEFVNWLLAGGPSSGAPPPSK([AEEA-AEEA-γGlu-C20‑OH])-NH2
B9: Compound No. 75 (peptide)
peptide: Y[Aib]EGTFTSDYSIYLEKIAAK([AEEA-AEEA-γGlu-C20‑OH])EFVNWLLAGGPSSGAPPPS-NH2
B10: Compound No. 28 (peptide)
peptide: H-Y[Aib]EGTFTSDYSIYLEKIAAQEFVNWLLAGGPSSGAPPPSK-NH2
modifications: not fully specified (residue 40); printed as H-YAibEGTFTSDYSIYLEKIAAQEFVNWLLAGGPSSGAPPPSK / (OEG-OEG-yGlu-C18-OH)-NH2
B11: Compound No. 60 (peptide)
peptide: Y[Aib]EGTFTSDYSIYLDKIAAK([AEEA-AEEA-γGlu-C18‑OH])EFVNWLLAGGPSSGAPPPS-NH2

Target: T1, human glucagon-like peptide-1 receptor (human, UniProt P43220)
Assay: cell-based or functional assay

With B1 the “Activity for human GLP-1R (EC50 nM), cAMP HTRF” value was 0.008 nM.

Target: T2, human glucose-dependent insulinotropic peptide receptor (human, UniProt P48546)
T2 sequence: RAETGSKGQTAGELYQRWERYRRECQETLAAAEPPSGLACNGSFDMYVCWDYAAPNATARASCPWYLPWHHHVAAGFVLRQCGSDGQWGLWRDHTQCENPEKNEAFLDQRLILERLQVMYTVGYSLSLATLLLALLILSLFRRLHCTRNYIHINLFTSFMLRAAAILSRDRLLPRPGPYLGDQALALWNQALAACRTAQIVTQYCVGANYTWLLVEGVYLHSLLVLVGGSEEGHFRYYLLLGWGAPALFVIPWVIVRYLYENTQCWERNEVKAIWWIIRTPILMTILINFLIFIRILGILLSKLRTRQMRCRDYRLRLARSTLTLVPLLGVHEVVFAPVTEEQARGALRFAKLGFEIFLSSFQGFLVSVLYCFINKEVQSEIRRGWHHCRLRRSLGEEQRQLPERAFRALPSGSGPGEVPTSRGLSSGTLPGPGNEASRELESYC
Assay: cell-based or functional assay

With B1 the “Activity for human GIPR (EC50 nM), cAMP HTRF” value was 0.008 nM.

Target: T1, human glucagon-like peptide-1 receptor
Assay: cell-based or functional assay
Remark: another data set of the same source

Point of comparison: B9, “Activity for human GLP-1R (EC50 nM), cAMP HTRF” value 0.2 nM. Against it:
- B2 — 1.6-fold higher, 0.32 nM
- B3 — within 1.5-fold, 0.24 nM
- B4 — 7.1-fold lower, 0.028 nM
- B5 — 6.5-fold lower, 0.031 nM
- B6 — 1.7-fold lower, 0.12 nM
- B7 — 3.4-fold lower, 0.058 nM
- B8 — 2.9-fold lower, 0.068 nM
- B10 — 2.7-fold lower, 0.074 nM
- B11 — the same, 0.2 nM

Target: T2, human glucose-dependent insulinotropic …
Assay: cell-based or functional assay
Remark: another data set of the same source

Point of comparison: B6, “Activity for human GIPR (EC50 nM), cAMP HTRF” value 0.11 nM. Against it:
- B2 — 2.4-fold lower, 0.045 nM
- B3 — 7.3-fold lower, 0.015 nM
- B4 — 3.4-fold lower, 0.032 nM
- B5 — 1.9-fold lower, 0.059 nM
- B7 — 5.2-fold lower, 0.021 nM
- B8 — 2.4-fold lower, 0.046 nM
- B9 — within 1.5-fold, 0.16 nM
- B10 — 5.5-fold lower, 0.02 nM
- B11 — 5.5-fold lower, 0.02 nM
